Laboratory results reported in publication PMC2686087.

How the values were obtained:
[1] = target: CaV2.2/α2δ-2 calcium channel coexpressed with β2a-SH3 (1–135) and β2a-GK (226–442) (UniProt Q05152)
[2] = target: CaV2.2/α2δ-2 calcium channel coexpressed with β2a-ΔvHOOK (UniProt Q05152)
[3] = target: CaV2.2/α2δ-2 calcium channel coexpressed with wild-type β2a (UniProt Q05152)
[4] = target: CaV2.2/α2δ-2 calcium channel coexpressed with wild-type β2a (UniProt Q05152); remark: listed apart in the source

“Gβγ (from UniProt P62873 1-340; P59768 1-71) (complex)” was tested, and the basal facilitation (P2/P1) of peak IBa at +10 mV in the absence of agonist [1] was 2.61, the time constant for the removal of tonic inhibition (τdissoc) at +120 mV [1] was 29.1 ms and the dissociation rate of Gβγ at +120 mV (from τdissoc) [2] was 29.7 s⁻¹. It also gave a time constant for rebinding of Gβγ at −100 mV (reinhibition after the prepulse) [2] of 296 ms, a dissociation rate of Gβγ at +120 mV (from τdissoc) [3] of 46.9 s⁻¹ and a time constant for rebinding of Gβγ at −100 mV (reinhibition after the prepulse) [3] of 248 ms. For the same substance, the basal facilitation (P2/P1) ratio at +10 mV without agonist [4] was 1.43.
